Measured values taken from paper PMC8931381 (Proceedings of the National Academy of Sciences of the …, 2022).
Read-outs that look alike come from different tables or passages of the source.

Tests used:
cryo-EM structure [1] = target: the molecule itself; assay: cryo-EM structure
cryo-EM structure [2] = target: the molecule itself; assay: cryo-EM structure; remark: listed apart in the source

B1: FliL of Borrelia burgdorferi (BbFliL) (natural protein, UniProt Q57442 1-178, looked up)
chain: MPNKDDDNLDMGDSNVSRKGGLLPDIIIKILQILAIGIFTVAIMIIVSYFVSKMVVSQSGAPSDFPVFSNEYLGKPPMLIWYESIDEIRGNTLDVPPKTFVVKLALGYAENNVNILNELGRQKVRLKDIIREYFSQRTGQEIKNESQIKAEIKARINSILRNGEIKEIALTQIDIFDM
cryo-EM structure [1]
  stoichiometry N: 4
cryo-EM structure [2]
  stoichiometry N: 10
